Patent publication US20250277030A1 (Zymeworks, published 2025)
Where two headings read alike, the source gives them in different places.

What was measured:
[1] = biological target: T1, human sodium-dependent phosphate transporter 2B (NaPi2b) (human, UniProt O95436 1-690); assay: flow cytometry, HEK293-6e cells transfected with human NaPi2b
T1 construct: UniProt ID is given as 095436 [sic]; also called hNaPi2b; Hu NaPi2b
T1 sequence: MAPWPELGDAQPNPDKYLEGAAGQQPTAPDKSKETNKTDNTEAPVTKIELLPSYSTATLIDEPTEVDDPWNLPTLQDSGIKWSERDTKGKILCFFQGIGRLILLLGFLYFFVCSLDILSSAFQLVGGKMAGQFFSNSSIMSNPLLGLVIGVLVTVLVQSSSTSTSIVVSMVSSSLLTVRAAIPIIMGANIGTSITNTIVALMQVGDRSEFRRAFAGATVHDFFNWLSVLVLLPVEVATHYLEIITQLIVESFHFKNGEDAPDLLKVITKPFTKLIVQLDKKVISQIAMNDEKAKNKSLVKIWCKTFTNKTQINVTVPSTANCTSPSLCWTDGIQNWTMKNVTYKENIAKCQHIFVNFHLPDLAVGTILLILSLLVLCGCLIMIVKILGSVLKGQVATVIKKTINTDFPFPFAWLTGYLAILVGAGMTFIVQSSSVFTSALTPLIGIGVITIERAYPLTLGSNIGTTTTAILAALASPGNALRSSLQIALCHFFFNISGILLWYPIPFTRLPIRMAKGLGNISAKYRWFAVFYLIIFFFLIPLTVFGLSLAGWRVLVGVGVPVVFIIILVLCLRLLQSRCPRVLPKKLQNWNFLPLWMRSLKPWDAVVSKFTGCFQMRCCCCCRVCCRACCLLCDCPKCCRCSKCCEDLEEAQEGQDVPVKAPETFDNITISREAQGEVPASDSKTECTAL
Procedure: (§1) The binding cross-reactivity of humanized antibody variant v29456 to human, cynomolgus and mouse NaPi2b was assessed by flow cytometry using HEK293-6e transfected cells.
(§2) Briefly, HEK293-6e cells were transfected for ˜24 hours to transiently express human NaPi2b, cynomolgus or mouse NaPi2b, at 1 μg of DNA per 1 million cells. Following transfection, 50,000 cells per well were seeded in V-bottom 96-well plates and incubated with 200 nM of primary antibody for 18-24 hours at 4° C. to prevent internalization. Post-incubation, cells were washed and stained with anti-Human IgG Fc AF647 conjugate (Jackson Immuno Research Labs, West Grove, PA, Cat. No. 109-605-098, Lot. No. 124868) at 4° C. for 1 hour. Following staining and washing, fluorescence was detected by flow cytometry on BD LSRFortessa™ Cell Analyzer (BD Biosciences, Franklin Lake, NJ) with 10,000 minimum events collected per well. The AF647/APC-A GeoMean (fluorescence signal geometric mean, proportional to anti-Human AF647 binding) was calculated for the live singlet cell population for each primary antibody using FlowJo™ v8 software (BD Biosciences, Franklin Lake, NJ). The Bmax and Kd of each primary antibody were calculated using GraphPad Prism Version 9 (GraphPad Software, San Diego, CA)

mouse NaPi2b = biological target: T2, mouse NaPi2b (mouse, UniProt Q9DBP0 1-697); assay: flow cytometry, HEK293-6e cells transfected with mouse NaPi2b; apparent Kd above the highest concentration tested
T2 construct: Transiently expressed on HEK293-6e cells; also called Ms NaPi2b
T2 sequence: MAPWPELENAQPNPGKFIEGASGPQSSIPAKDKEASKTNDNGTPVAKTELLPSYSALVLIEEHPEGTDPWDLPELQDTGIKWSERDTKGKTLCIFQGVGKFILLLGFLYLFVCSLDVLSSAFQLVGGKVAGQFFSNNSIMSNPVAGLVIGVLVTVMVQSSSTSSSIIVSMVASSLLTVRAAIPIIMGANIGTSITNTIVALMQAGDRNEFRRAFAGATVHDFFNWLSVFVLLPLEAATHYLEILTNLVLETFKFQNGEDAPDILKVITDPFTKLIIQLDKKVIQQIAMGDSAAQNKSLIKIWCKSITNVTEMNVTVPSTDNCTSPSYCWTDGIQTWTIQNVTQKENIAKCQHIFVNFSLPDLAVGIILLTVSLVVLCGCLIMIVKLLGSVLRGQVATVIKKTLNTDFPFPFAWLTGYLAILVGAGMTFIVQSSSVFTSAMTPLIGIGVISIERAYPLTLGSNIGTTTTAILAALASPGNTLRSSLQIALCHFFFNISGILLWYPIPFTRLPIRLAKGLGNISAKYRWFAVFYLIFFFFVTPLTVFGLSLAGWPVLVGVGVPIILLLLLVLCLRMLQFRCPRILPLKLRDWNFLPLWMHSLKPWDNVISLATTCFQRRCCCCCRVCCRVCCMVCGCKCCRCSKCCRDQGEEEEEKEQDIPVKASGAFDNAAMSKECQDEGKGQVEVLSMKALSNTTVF

cynomolgus monkey NaPi2b [2] = biological target: T3, cynomolgus monkey NaPi2b (cynomolgus monkey, UniProt O95436 1-690 (human entry)); assay: flow cytometry, HEK293-6e cells transfected with cynomolgus NaPi2b
T3 construct: Transiently expressed on HEK293-6e cells; also called Cyno NaPi2b
T3 chain: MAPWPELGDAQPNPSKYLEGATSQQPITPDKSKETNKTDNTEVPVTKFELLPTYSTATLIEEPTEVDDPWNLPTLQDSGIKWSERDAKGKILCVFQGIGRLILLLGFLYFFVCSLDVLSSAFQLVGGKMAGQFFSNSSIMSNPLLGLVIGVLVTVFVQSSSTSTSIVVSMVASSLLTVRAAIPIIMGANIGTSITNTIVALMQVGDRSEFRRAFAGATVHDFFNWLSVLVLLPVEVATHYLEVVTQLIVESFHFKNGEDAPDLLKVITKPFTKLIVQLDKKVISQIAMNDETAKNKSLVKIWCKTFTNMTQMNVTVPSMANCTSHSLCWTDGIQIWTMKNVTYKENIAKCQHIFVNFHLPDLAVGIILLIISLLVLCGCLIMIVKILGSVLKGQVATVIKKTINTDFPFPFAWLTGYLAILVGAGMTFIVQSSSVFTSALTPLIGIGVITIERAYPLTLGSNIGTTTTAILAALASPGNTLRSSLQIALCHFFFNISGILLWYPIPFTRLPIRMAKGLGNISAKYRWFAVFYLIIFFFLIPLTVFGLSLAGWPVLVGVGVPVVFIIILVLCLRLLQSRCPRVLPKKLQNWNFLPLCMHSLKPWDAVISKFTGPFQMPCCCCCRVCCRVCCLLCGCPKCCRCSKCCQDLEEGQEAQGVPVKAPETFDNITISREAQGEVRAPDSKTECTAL
Procedure: as §1, §2

cynomolgus monkey NaPi2b [3] = biological target: T3, cynomolgus monkey NaPi2b; assay: flow cytometry, HEK293-6e cells transfected with cynomolgus NaPi2b; apparent Kd
Procedure: as §1, §2

[4] = biological target: T1, human sodium-dependent phosphate …; assay: flow cytometry, HEK293-6e cells transfected with human NaPi2b; apparent Kd
Procedure: as §1, §2

[5] = biological target: T1, human sodium-dependent phosphate …; assay: as above; remark: listed apart in the source
Procedure: The binding cross-reactivity of humanized antibody variant v38591 to human NaPi2b, NaPi2a, and NaPi2c was assessed by flow cytometry using HEK293-6e transfected cells.
Following transfection, cells were seeded at 50,000 cells/well in conical-bottom 96-well plates and treated with test antibody for 24 hours at 4° C. to prevent internalization. Following incubation, cells were washed and stained with anti-Human IgG Fc AF647 conjugate (Jackson Immuno Research Labs, West Grove, PA; Cat. No. 109-605-098) or anti-Rabbit IgG F(ab″)2 AF647 conjugate (Jackson Immuno Research Labs, West Grove, PA; Cat. No. 111-605-047). Following incubation and washing, fluorescence was detected by flow cytometry on a BD LSRFortessa™ Cell Analyzer (BD Biosciences, Franklin Lake, NJ) with 1,000 minimum events collected per well. The AF647/APC-A GeoMean (fluorescence signal geometric mean, proportional to anti-Human AF647 binding) was calculated for the live cell population using FlowJo™ Version 10.8.1 (BD Biosciences, Franklin Lake, NJ) and plotted for each test antibody using GraphPad Prism Version 9 (GraphPad Software, San Diego, CA).

B1: v18992, reference anti-NaPi2b antibody MX35 (antibody, human IgG1, kappa)
heavy 1: GQVQLVQSGAEVVKPGASVKMSCKASGYTFTGYNIHWVKQAPGQGLEWIGAIYPGNGDTSYKQKFRGRATLTADTSTSTVYMELSSLRSEDSAVYYCARGETARATFAYWGQGTLVTVSSASTKGPSVFPLAPSSKSTSGGTAALGCLVKDYFPEPVTVSWNSGALTSGVHTFPAVLQSSGLYSLSSVVTVPSSSLGTQTYICNVNHKPSNTKVDKKVEPKSCDKTHTCPPCPAPELLGGPSVFLFPPKPKDTLMISRTPEVTCVVVDVSHEDPEVKFNWYVDGVEVHNAKTKPREEQYNSTYRVVSVLTVLHQDWLNGKEYKCKVSNKALPAPIEKTISKAKGQPREPQVYVYPPSRDELTKNQVSLTCLVKGFYPSDIAVEWESNGQPENNYKTTPPVLDSDGSFALVSKLTVDKSRWQQGNVFSCSVMHEALHNHYTQKSLSLSPG
heavy 2: not shown
light: GDIQMTQSPSSLSASVGDRVTITCSASQDIGNFLNWYQQKPGKTVKVLIYYTSSLYSGVPSRFSGSGSGTDYTLTISSLQPEDFATYYCQQYSKLPLTFGQGTKLELKRTVAAPSVFIFPPSDEQLKSGTASVVCLLNNFYPREAKVQWKVDNALQSGNSQESVTEQDSKDSTYSLSSTLTLSKADYEKHKVYACEVTHQGLSSPVTKSFNRGEC
[1]
  Bmax (APC-A GeoMean): 1900 APC-A GeoMean
Mouse NaPi2b
  Kd: > 200 nM
Cynomolgus monkey NaPi2b [2]
  Bmax (APC-A GeoMean): 2360 APC-A GeoMean
Cynomolgus monkey NaPi2b [3]
  Kd: 31 nM
[4]
  Kd: 1.98 nM
[5]
  Kd: 1.51 nM
